The record followed here is patent US20140087995A1 (published 2014).

To fix the notation:
T1: rat amylin receptor (rat calcitonin receptor + rat RAMP 3) (rat, UniProt P32214 25-516; Q9JJ73 23-147)
T1 construct: whole, on cells; Used as membranes prepared from BHK tk'ts 13 cells transiently transfected with rat calcitonin receptor and rat RAMP 3 (Assay VI); also called rAmylin-R; rat amylin 3(a) receptor
T1 sequence (looked up) 1: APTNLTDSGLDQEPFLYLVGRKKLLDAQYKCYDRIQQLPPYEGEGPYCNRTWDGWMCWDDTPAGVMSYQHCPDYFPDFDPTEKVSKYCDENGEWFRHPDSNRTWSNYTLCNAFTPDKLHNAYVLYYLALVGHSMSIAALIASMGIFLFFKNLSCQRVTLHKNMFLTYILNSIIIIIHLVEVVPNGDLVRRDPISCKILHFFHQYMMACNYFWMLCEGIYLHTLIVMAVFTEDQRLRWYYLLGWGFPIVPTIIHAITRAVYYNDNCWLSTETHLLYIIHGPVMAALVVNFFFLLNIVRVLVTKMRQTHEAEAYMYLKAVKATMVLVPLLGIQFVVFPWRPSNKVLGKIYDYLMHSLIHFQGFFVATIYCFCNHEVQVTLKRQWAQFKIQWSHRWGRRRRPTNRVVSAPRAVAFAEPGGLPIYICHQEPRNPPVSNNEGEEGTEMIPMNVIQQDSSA
T1 sequence (looked up) 2: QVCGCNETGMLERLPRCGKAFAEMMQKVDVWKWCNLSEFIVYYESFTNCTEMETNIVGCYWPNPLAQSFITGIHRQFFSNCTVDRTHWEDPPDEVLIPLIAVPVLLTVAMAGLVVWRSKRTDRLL

T2: rat calcitonin receptor (rat, UniProt P32214 25-516)
T2 construct: whole, on cells; Used as membranes prepared from BHK tk'ts 13 cells transiently transfected with the rat calcitonin receptor (Assay VIII); also called rCTR; rat calcitonin (a) receptor
T2 sequence (looked up): T1 sequence (looked up) 1

T3: human calcitonin receptor (human, UniProt P30988 25-474)
T3 construct: whole, on cells; Used as membranes prepared from a BHK tk'ts 13 cell line stably transfected with the human calcitonin receptor (Assay VII); also called hCTR; hCT
T3 sequence (looked up): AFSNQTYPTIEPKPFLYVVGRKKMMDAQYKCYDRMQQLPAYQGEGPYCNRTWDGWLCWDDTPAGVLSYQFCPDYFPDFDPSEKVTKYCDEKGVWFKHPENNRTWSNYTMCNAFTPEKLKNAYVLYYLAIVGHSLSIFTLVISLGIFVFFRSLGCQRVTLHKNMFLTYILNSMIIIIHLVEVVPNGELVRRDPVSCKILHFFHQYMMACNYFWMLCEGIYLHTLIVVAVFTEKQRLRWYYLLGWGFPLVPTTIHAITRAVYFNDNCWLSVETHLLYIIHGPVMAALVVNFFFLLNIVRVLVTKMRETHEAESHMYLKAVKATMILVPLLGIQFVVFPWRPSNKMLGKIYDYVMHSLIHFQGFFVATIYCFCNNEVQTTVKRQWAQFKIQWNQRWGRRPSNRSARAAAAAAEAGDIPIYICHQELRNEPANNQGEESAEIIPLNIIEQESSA

B1: N^ε1-[(4S)-4-carboxy-4-(19-carboxynonadecanoylamino)butanoyl]-[Arg17,Pro21,Pro27,Arg34]-h-amylin (peptide)
peptide: K([γGlu-C20 diacid])CNTATCATQRLANFLRHSSPNFGAIPSSTNVGRNTY-NH2
modifications: disulfide 2-7; N-terminus assumed
SMILES: CC[C@H](C)[C@H](NC(=O)[C@H](C)NC(=O)CNC(=O)[C@H](Cc1ccccc1)NC(=O)[C@H](CC(N)=O)NC(=O)[C@@H]1CCCN1C(=O)[C@H](CO)NC(=O)[C@H](CO)NC(=O)[C@H](Cc1c[nH]cn1)NC(=O)[C@H](CCCNC(=N)N)NC(=O)[C@H](CC(C)C)NC(=O)[C@H](Cc1ccccc1)NC(=O)[C@H](CC(N)=O)NC(=O)[C@H](C)NC(=O)[C@H](CC(C)C)NC(=O)[C@H](CCCNC(=N)N)NC(=O)[C@H](CCC(N)=O)NC(=O)[C@@H](NC(=O)[C@H](C)NC(=O)[C@@H]1CSSC[C@H](NC(=O)[C@@H](N)CCCCNC(=O)CC[C@H](NC(=O)CCCCCCCCCCCCCCCCCCC(=O)O)C(=O)O)C(=O)N[C@@H](CC(N)=O)C(=O)N[C@@H]([C@@H](C)O)C(=O)N[C@@H](C)C(=O)N[C@@H]([C@@H](C)O)C(=O)N1)[C@@H](C)O)C(=O)N1CCC[C@H]1C(=O)N[C@@H](CO)C(=O)N[C@@H](CO)C(=O)N[C@H](C(=O)N[C@@H](CC(N)=O)C(=O)N[C@H](C(=O)NCC(=O)N[C@@H](CCCNC(=N)N)C(=O)N[C@@H](CC(N)=O)C(=O)N[C@H](C(=O)N[C@@H](Cc1ccc(O)cc1)C(N)=O)[C@@H](C)O)C(C)C)[C@@H](C)O
notes: Analogue of human amylin; also called compound 79
B2: N^ε1-[(4S)-4-carboxy-4-(19-carboxynonadecanoylamino)butanoyl]-[Glu14,Arg17,Pro21,Pro27,Arg35]-h-amylin (peptide)
peptide: K([γGlu-C20 diacid])CNTATCATQRLAEFLRHSSPNFGAIPSSTNVGSRTY-NH2
modifications: disulfide 2-7; N-terminus assumed
SMILES: CC[C@H](C)[C@H](NC(=O)[C@H](C)NC(=O)CNC(=O)[C@H](Cc1ccccc1)NC(=O)[C@H](CC(N)=O)NC(=O)[C@@H]1CCCN1C(=O)[C@H](CO)NC(=O)[C@H](CO)NC(=O)[C@H](Cc1c[nH]cn1)NC(=O)[C@H](CCCNC(=N)N)NC(=O)[C@H](CC(C)C)NC(=O)[C@H](Cc1ccccc1)NC(=O)[C@H](CCC(=O)O)NC(=O)[C@H](C)NC(=O)[C@H](CC(C)C)NC(=O)[C@H](CCCNC(=N)N)NC(=O)[C@H](CCC(N)=O)NC(=O)[C@@H](NC(=O)[C@H](C)NC(=O)[C@@H]1CSSC[C@H](NC(=O)[C@@H](N)CCCCNC(=O)CC[C@H](NC(=O)CCCCCCCCCCCCCCCCCCC(=O)O)C(=O)O)C(=O)N[C@@H](CC(N)=O)C(=O)N[C@@H]([C@@H](C)O)C(=O)N[C@@H](C)C(=O)N[C@@H]([C@@H](C)O)C(=O)N1)[C@@H](C)O)C(=O)N1CCC[C@H]1C(=O)N[C@@H](CO)C(=O)N[C@@H](CO)C(=O)N[C@H](C(=O)N[C@@H](CC(N)=O)C(=O)N[C@H](C(=O)NCC(=O)N[C@@H](CO)C(=O)N[C@@H](CCCNC(=N)N)C(=O)N[C@H](C(=O)N[C@@H](Cc1ccc(O)cc1)C(N)=O)[C@@H](C)O)C(C)C)[C@@H](C)O
notes: Analogue of human amylin; also called compound 51
B3: N^ε1-[(4S)-4-carboxy-4-(19-carboxynonadecanoylamino)butanoyl]-[Arg17,Pro21,Pro27,His35]-h-amylin (peptide)
peptide: K([γGlu-C20 diacid])CNTATCATQRLANFLRHSSPNFGAIPSSTNVGSHTY-NH2
modifications: disulfide 2-7; N-terminus assumed
SMILES: CC[C@H](C)[C@H](NC(=O)[C@H](C)NC(=O)CNC(=O)[C@H](Cc1ccccc1)NC(=O)[C@H](CC(N)=O)NC(=O)[C@@H]1CCCN1C(=O)[C@H](CO)NC(=O)[C@H](CO)NC(=O)[C@H](Cc1c[nH]cn1)NC(=O)[C@H](CCCNC(=N)N)NC(=O)[C@H](CC(C)C)NC(=O)[C@H](Cc1ccccc1)NC(=O)[C@H](CC(N)=O)NC(=O)[C@H](C)NC(=O)[C@H](CC(C)C)NC(=O)[C@H](CCCNC(=N)N)NC(=O)[C@H](CCC(N)=O)NC(=O)[C@@H](NC(=O)[C@H](C)NC(=O)[C@@H]1CSSC[C@H](NC(=O)[C@@H](N)CCCCNC(=O)CC[C@H](NC(=O)CCCCCCCCCCCCCCCCCCC(=O)O)C(=O)O)C(=O)N[C@@H](CC(N)=O)C(=O)N[C@@H]([C@@H](C)O)C(=O)N[C@@H](C)C(=O)N[C@@H]([C@@H](C)O)C(=O)N1)[C@@H](C)O)C(=O)N1CCC[C@H]1C(=O)N[C@@H](CO)C(=O)N[C@@H](CO)C(=O)N[C@H](C(=O)N[C@@H](CC(N)=O)C(=O)N[C@H](C(=O)NCC(=O)N[C@@H](CO)C(=O)N[C@@H](Cc1c[nH]cn1)C(=O)N[C@H](C(=O)N[C@@H](Cc1ccc(O)cc1)C(N)=O)[C@@H](C)O)C(C)C)[C@@H](C)O
notes: Analogue of human amylin; also called compound 60
B4: N^ε1-[(4S)-4-carboxy-4-(19-carboxynonadecanoylamino)butanoyl]-[Arg17,Pro21,Pro27,His34]-h-amylin (peptide)
peptide: K([γGlu-C20 diacid])CNTATCATQRLANFLRHSSPNFGAIPSSTNVGHNTY-NH2
modifications: disulfide 2-7; N-terminus assumed
SMILES: CC[C@H](C)[C@H](NC(=O)[C@H](C)NC(=O)CNC(=O)[C@H](Cc1ccccc1)NC(=O)[C@H](CC(N)=O)NC(=O)[C@@H]1CCCN1C(=O)[C@H](CO)NC(=O)[C@H](CO)NC(=O)[C@H](Cc1c[nH]cn1)NC(=O)[C@H](CCCNC(=N)N)NC(=O)[C@H](CC(C)C)NC(=O)[C@H](Cc1ccccc1)NC(=O)[C@H](CC(N)=O)NC(=O)[C@H](C)NC(=O)[C@H](CC(C)C)NC(=O)[C@H](CCCNC(=N)N)NC(=O)[C@H](CCC(N)=O)NC(=O)[C@@H](NC(=O)[C@H](C)NC(=O)[C@@H]1CSSC[C@H](NC(=O)[C@@H](N)CCCCNC(=O)CC[C@H](NC(=O)CCCCCCCCCCCCCCCCCCC(=O)O)C(=O)O)C(=O)N[C@@H](CC(N)=O)C(=O)N[C@@H]([C@@H](C)O)C(=O)N[C@@H](C)C(=O)N[C@@H]([C@@H](C)O)C(=O)N1)[C@@H](C)O)C(=O)N1CCC[C@H]1C(=O)N[C@@H](CO)C(=O)N[C@@H](CO)C(=O)N[C@H](C(=O)N[C@@H](CC(N)=O)C(=O)N[C@H](C(=O)NCC(=O)N[C@@H](Cc1c[nH]cn1)C(=O)N[C@@H](CC(N)=O)C(=O)N[C@H](C(=O)N[C@@H](Cc1ccc(O)cc1)C(N)=O)[C@@H](C)O)C(C)C)[C@@H](C)O
notes: Analogue of human amylin; also called compound 77
B5: N^ε1-[(4S)-4-carboxy-4-(19-carboxynonadecanoylamino)butanoyl]-[His14,Arg17,Pro21,Pro27,His34]-h-amylin (peptide)
peptide: K([γGlu-C20 diacid])CNTATCATQRLAHFLRHSSPNFGAIPSSTNVGHNTY-NH2
modifications: disulfide 2-7; N-terminus assumed
SMILES: CC[C@H](C)[C@H](NC(=O)[C@H](C)NC(=O)CNC(=O)[C@H](Cc1ccccc1)NC(=O)[C@H](CC(N)=O)NC(=O)[C@@H]1CCCN1C(=O)[C@H](CO)NC(=O)[C@H](CO)NC(=O)[C@H](Cc1c[nH]cn1)NC(=O)[C@H](CCCNC(=N)N)NC(=O)[C@H](CC(C)C)NC(=O)[C@H](Cc1ccccc1)NC(=O)[C@H](Cc1c[nH]cn1)NC(=O)[C@H](C)NC(=O)[C@H](CC(C)C)NC(=O)[C@H](CCCNC(=N)N)NC(=O)[C@H](CCC(N)=O)NC(=O)[C@@H](NC(=O)[C@H](C)NC(=O)[C@@H]1CSSC[C@H](NC(=O)[C@@H](N)CCCCNC(=O)CC[C@H](NC(=O)CCCCCCCCCCCCCCCCCCC(=O)O)C(=O)O)C(=O)N[C@@H](CC(N)=O)C(=O)N[C@@H]([C@@H](C)O)C(=O)N[C@@H](C)C(=O)N[C@@H]([C@@H](C)O)C(=O)N1)[C@@H](C)O)C(=O)N1CCC[C@H]1C(=O)N[C@@H](CO)C(=O)N[C@@H](CO)C(=O)N[C@H](C(=O)N[C@@H](CC(N)=O)C(=O)N[C@H](C(=O)NCC(=O)N[C@@H](Cc1c[nH]cn1)C(=O)N[C@@H](CC(N)=O)C(=O)N[C@H](C(=O)N[C@@H](Cc1ccc(O)cc1)C(N)=O)[C@@H](C)O)C(C)C)[C@@H](C)O
notes: Analogue of human amylin; also called compound 81

Numbered stars: 1 amine (or outer) side, 2 acyl side, 3 side chain; on linkers, the order of the positions; unused ones are H or OH. Bridge positions count the residues as written; N and C are the ends. Side chains are listed from the residue outwards. Ends that are not written are not given here. * marks the point of attachment. C20 diacid = O=C(O)CCCCCCCCCCCCCCCCCCC(=O)*; γGlu = O=C(O)[C@H](CCC(=O)[*:2])N[*:1]

The first assay deals with T1, rat amylin receptor (rat calcitonin …). Nature of the assay: SPA competition with 125I-rat amylin, membranes of BHK cells with rat CTR + rat RAMP3 (Assay VI).
Regarding B1, the IC50 was found to be 1.65 nM.

For the molecule B2, the IC50 was found to be 0.523 nM.

On to B3, for which the IC50 came out at 0.215 nM.

Regarding B4, the IC50 amounted to 1.5 nM.

With B5, the IC50 came out at 1.42 nM.

The target of another assay is T2, rat calcitonin receptor. Nature of the assay: IC50 on rat CTR divided by IC50 on rat amylin receptor (Assays VIII/VI).
With B1, the “Ratio rCT/rAmylin binding” value amounted to 21.5.

Turning to B2, the “Ratio rCT/rAmylin binding” value was 119.

Regarding B3, the “Ratio rCT/rAmylin binding” value came to 122.

As for B4, the “Ratio rCT/rAmylin binding” value worked out at 137.

As for B5, the “Ratio rCT/rAmylin binding” value came to 42.9.

A further assay has as its target T3, human calcitonin receptor. Nature of the assay: IC50 on human CTR divided by IC50 on human amylin receptor (Assays VII/V). In short, it runs like this: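 Competition binding by SPA uses membrane preparations (35 ng/μL final) in pH 7.4 Hepes buffer with 1 mM CaCl2 and 5 mM MgCl₂. Incubation lasts 120 min at 25° C, and IC₅₀ comes from one-site fitting.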
For B1, the “Ratio hCT/hAmylin binding” value is 46.1.

Turning to B2, the “Ratio hCT/hAmylin binding” value worked out at 37.5.

As to B3, the “Ratio hCT/hAmylin binding” value turned out to be 45.2.

B4: the “Ratio hCT/hAmylin binding” value came to 118.

B5: the “Ratio hCT/hAmylin binding” value stood at 87.2.

The target in another assay is T2, rat calcitonin receptor. The assay is described as follows: SPA competition with 125I-calcitonin, membranes of BHK cells with rat CTR (Assay VIII).
B1: the IC50 worked out at 35.5 nM.

On to B2, for which the IC50 stood at 62 nM.

Consider B3, for which the IC50 was found to be 26.3 nM.

On to B4, for which the IC50 came out at 205 nM.

As to B5, the IC50 was determined as 61.1 nM.
